Entries after “also recorded” stand apart in the source; their conditions may differ.
Columns and labels:
EphA2-Fc = target: T1, EphA2-Fc (Homo sapiens, UniProt P29317); experiment: Competitive ELISA: inhibition of labeled EA2 binding to EphA2-Fc; conditions: unlabeled antibody, increasing concentrations; FIG. 1
T1 construct: consisted of the extracellular domain of human EphA2 linked to human immunoglobulin
Procedure: The ability of labeled EA2 monoclonal antibody to bind EphA2-Fc was assayed by competitive ELISA in presence of either unlabeled monoclonal antibodies EA2 or Eph099B-208.261. Ratios of unlabeled to labeled antibody used in the assay are indicated on the x-axis.
Supernatants from bulk culture hybridomas were screened for immunoreactivity against EphA2 (Table 9, column 4) using standard molecular biological techniques (e.g., ELISA immunoassay). Supernatants were further screened for the ability to inhibit an EphA2 monoclonal antibody (EA2; ATCC deposit no. PTA-4380; see co-pending U.S. patent application Ser. No. 10/436,783, entitled “EphA2 Agonistic Monoclonal Antibodies and Methods of Use Thereof” filed May 12, 2003) from binding to EphA2. […] Additionally, many of the other antibodies could inhibit EA2 binding to EphA2 as well (Table 9, column 3).

MCF-7^EphA2 cells = experiment: Soft agar colonization of MCF-7^EphA2 cells; type: cell-based; conditions: TAM 1 μM, EA2 10 μg/ml
Procedure: (B) MCF-7 (circles) or MCF-7^EphA2 cells (squares) were implanted into the mammary fatpad (n=15 mice per group) in the presence of supplemental estrogen.
MCF-7^EPhA2 cells were incubated in the presence of 3 μg/ml of EA2 for the time indicated prior to sample extraction and Western blot analyses with an EphA2-specific antibody (D7). (B) The membrane was stripped and re-probed with a β-catenin-specific antibody as a loading control.
Growth assays were conducted as follows. MCF-7^neo (control cells) or MCF7^EphA2 cells were seeded in 96-well plates. […] Colony formation in soft agar was performed as previously described (Zelinski et al., 2001, Cancer Res. 61: 2301-6) and scored microscopically, defining clusters of at least three cells as a positive. The data represent the average of ten separate high-power microscopic fields from each sample and representative of at least three separate experiments. Error bars represent the standard error of the mean of at least three different experiments as determined using Microsoft Excel software.
(§1) Growth MCF-7^EphA2 cells which had decreased EphA2 expression levels was assayed in soft agar.

[1] = target: T2, EphA2-Ephrin A1-Fc-EA2 complex (Homo sapiens, UniProt P29317); experiment: Displacement of biotinylated EA2 from EphA2-Ephrin A1-Fc complex by unlabeled competitor; type: binding; conditions: biotinylated EA2 10 μg/ml; FIG. 18B
T2 construct: consisting of the extracellular domain of EphA2 linked to human IgG1 constant region (EphA2-Fc)
Procedure: (A) EphA2-Fc was incubated with and bound to immobilized Ephrin A1-Fc. Labeled Ephrin A1-Fc (black), EA2 (white) or Eph099B-233.152 (grey) was incubated with the EphA2-Ephrin A1-Fc complex and amount of binding was measured. (B) EphA2-Fc was incubated with and bound to immobilized Ephrin A1-Fc. Labeled EA2 was then incubated with the EphA2-Ephrin A1 complex. Unlabeled competitor was incubated with EphA2-Ephrin A1-EA2 complex in the indicated amount. Competitors were Ephrin A1-Fc (black), EA2 (white) or Eph099B-233.152 (grey).
The EphA2-Ephrin A1-Fc complex was prepared as described above. Biotinylated EA2 (10 μg/ml) was then incubated with the complex for 30 min. Unlabeled competitor was incubated with EphA2-Ephrin A1-Fc-EA2 complex in the indicated amount. Unlabeled EA2 could displace the labeled EA2 at concentrations of 100 ng/ml or greater.

EphA2 = EphA2 (Homo sapiens, UniProt P29317); experiment: EphA2 expression in MCF-7^EphA2 cells after EA2 treatment (Western blot); type: cell-based
Procedure: MCF-7^EPhA2 cells were incubated in the presence of 3 μg/ml of EA2 for the time indicated prior to sample extraction and Western blot analyses with an EphA2-specific antibody (D7).
Estrogen-sensitive breast cancer cells, MCF-7 cells, were transfected with and stably overexpressed human EphA2 (MCF-7^EphA2) (pNeoMSV-EphA2 provided by Dr. T. Hunter, Scripps Institute). Western blot analyses confirmed the ectopic overexpression of EphA2 in transfected cells relative to matched controls (data not shown).
as §1

[2] = test system: MDA-MB-231 breast cancer cells; experiment: Tumor growth, MDA-MB-231 cells implanted orthotopically into athymic mice; type: in vivo; conditions: 6 mg/kg i.p. twice a week for 3 weeks; FIG. 7A
Procedure: Total tumor volume was determined after sacrifice.

EphA2, sequence (P29317 24-976): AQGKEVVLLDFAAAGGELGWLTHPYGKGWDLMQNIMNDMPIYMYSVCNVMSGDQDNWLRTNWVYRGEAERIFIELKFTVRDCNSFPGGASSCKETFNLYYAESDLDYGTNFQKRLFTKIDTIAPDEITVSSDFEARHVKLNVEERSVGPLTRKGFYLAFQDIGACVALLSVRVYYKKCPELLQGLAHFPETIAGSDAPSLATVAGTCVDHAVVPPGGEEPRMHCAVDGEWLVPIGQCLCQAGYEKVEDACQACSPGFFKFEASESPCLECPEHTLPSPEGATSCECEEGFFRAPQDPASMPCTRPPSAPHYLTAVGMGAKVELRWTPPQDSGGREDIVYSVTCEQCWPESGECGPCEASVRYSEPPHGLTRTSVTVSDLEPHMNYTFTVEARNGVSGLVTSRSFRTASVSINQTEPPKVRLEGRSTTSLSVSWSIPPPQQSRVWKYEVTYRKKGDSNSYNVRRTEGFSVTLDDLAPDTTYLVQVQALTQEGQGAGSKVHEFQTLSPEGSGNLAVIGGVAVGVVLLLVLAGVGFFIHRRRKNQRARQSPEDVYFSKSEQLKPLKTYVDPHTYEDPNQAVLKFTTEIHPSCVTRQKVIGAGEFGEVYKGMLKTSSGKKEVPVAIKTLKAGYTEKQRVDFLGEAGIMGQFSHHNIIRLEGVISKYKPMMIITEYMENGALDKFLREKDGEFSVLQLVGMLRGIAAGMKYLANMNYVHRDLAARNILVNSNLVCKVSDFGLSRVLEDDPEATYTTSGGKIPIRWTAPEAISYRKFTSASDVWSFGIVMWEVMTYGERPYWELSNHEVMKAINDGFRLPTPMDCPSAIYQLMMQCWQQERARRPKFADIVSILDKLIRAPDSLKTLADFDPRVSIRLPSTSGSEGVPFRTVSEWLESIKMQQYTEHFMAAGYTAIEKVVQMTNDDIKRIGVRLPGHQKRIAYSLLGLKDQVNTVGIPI
T1 sequence (P29317 24-537 limits assumed): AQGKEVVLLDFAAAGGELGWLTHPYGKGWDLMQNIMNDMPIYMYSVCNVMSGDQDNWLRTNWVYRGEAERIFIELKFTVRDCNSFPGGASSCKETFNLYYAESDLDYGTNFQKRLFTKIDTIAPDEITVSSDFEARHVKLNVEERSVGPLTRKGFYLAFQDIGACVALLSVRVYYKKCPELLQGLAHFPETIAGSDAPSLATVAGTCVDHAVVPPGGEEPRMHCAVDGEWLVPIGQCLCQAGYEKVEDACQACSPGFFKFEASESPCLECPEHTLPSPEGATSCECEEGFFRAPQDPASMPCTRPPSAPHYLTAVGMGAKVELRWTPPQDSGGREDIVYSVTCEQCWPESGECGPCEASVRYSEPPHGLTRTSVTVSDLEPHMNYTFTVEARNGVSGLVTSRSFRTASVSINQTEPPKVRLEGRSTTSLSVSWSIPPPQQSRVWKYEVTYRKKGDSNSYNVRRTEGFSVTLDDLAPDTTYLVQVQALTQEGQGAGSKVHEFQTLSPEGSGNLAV
T2 sequence (P29317 24-537 limits assumed): as above
T2 sequence (P20827 19-182 partner limits assumed): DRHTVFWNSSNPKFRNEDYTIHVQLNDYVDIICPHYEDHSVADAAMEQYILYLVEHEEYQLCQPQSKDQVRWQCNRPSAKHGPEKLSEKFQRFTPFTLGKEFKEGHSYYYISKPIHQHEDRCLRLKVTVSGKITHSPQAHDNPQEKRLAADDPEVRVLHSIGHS

B1: EA2: EphA2 agonistic monoclonal antibody; hybridoma strain EA2.31, ATCC PTA-4380 (antibody, V domains shown)
VH: DVKLVESGGGLVKPGGSLKLSCAASGFTFSSYTMSWVRQTPEKRLEWVATISSGGTYTYYPDSVKGRFTISRDNAKNTLYLQMSSLKSEDTAMYYCTREAIFTYWGQGTLVTVSA
VL: DIKMTQSPSSMYASLGERVTITCKASQDINNYLSWFQQKPGKSPKTLIYRANRLVDGVPSRFSGSGSGQDYSLTISSLEYEDMGIYYCLKYDEFPYTFGGGTKLEIK
B1 was tested. Which “Competition with labeled EA2 for binding to EphA2-Fc” value (EphA2-Fc) did it give?
Its value is “could decrease the amount of labeled EA2 binding to EphA2-Fc”.

And the “Soft agar colonization response / tamoxifen sensitivity, MCF-7^EphA2 cells” value (MCF-7^EphA2 cells; 1 μM 17β-estradiol, FIGS. 11A, 13C (11A also MCF-7))?
The value was “restored a phenotype that was comparable to control MCF-7 cells; also recorded: decreases malignant growth; also recorded: increased the sensitivity of MCF-7^EphA2 cells to tamoxifen”.

What about the “Inhibition / decrease of soft agar colonization, MCF-7^EphA2 cells” value (MCF-7^EphA2 cells; 14 days) of the same molecule?
The value was 19%.

What about the “Concentration of unlabeled competitor displacing labeled EA2” value [1] of the same molecule?
The value was at least 100 ng/mL.

What about the “Time EphA2 remained undetectable after EA2 treatment” value (EphA2; 3 μg/ml EA2) of the same molecule?
The value was at least 24 h.

And the “EphA2 activation and expression level after EA2 treatment” value (EphA2; 3 μg/ml EA2, FIG. 13A)?
Its value is “induced EphA2 activation and subsequent degradation; also recorded: Decreased levels of EphA2 expression were observed within two hours”.

And the “Tumor growth, MDA-MB-231 implanted orthotopically” value [2]?
The value was “inhibited”.

Source: patent US20050153923A1, “Targeted drug delivery using EphA2 or EphA4 binding moieties” (priority 2003, published 2005)
